The assay concerns the target T1, EphA2 receptor (Homo sapiens, UniProt P29317).
T1 construct: PC-3 prostate cancer cells that overexpress the EphA2 receptor; endogenous in cells; host or cells: PC-3 cells (ATCC CRL-1435)
As to the kind of experiment: EphA2 phosphorylation assay (sandwich ELISA, DuoSet IC Human Phospho-EphA2 kit) in PC-3 cells. It is filed as cell-based.

Where [1] appears, read: serum-starved PC-3 cells, 30 min at 37 °C, duplicates, sandwich ELISA, approximate EC50 from least-square fit (Equation 1), mean ± standard deviation, concentration of whole entity (DNA construct or peptide).

2 molecules from publication PMC6274923, “Pinpointed Stimulation of EphA2 Receptors via DNA-Templated Oligovalence” (International Journal of Molecular Sciences, 2018) can be followed below.

Broadly, the EC50 is the concentration at which the effect is half-maximal. High values mean a less potent agent, low ones a more potent agent.

T1 sequence (P29317 24-976): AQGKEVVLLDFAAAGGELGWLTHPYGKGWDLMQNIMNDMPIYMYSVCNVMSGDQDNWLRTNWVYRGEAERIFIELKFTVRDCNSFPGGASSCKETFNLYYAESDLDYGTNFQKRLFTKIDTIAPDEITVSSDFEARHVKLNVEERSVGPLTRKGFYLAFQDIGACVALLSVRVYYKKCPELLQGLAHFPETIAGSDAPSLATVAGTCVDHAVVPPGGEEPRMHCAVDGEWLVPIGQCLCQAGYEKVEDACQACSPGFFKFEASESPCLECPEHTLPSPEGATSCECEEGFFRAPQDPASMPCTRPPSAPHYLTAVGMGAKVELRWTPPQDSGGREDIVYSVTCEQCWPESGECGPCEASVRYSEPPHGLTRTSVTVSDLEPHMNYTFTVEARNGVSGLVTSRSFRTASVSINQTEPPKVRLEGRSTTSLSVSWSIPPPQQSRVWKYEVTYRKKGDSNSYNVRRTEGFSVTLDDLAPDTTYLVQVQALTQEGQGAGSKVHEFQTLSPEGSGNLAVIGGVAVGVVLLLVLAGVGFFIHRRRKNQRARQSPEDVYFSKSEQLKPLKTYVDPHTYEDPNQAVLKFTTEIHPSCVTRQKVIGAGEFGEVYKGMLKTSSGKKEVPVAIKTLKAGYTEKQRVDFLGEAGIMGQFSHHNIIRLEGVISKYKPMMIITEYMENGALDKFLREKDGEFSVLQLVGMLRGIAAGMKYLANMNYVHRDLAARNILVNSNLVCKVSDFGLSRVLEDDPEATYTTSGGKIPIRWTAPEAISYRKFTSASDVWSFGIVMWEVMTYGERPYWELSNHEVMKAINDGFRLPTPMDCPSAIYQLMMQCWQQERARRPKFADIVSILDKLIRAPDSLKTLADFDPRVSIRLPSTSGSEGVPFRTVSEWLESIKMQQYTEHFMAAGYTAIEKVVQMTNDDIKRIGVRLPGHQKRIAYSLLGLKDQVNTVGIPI
Method: Serum-starved PC-3 cells were treated with different SWL-DNA trimer constructs (9 µM), monomeric SWL peptide (150 µM) and the natural ligand ephrin-A1 (1.5 µg/mL) in duplicates for 30 min at 37 °C. Cells were washed with 1× PBS twice and further treated according to the manufacturer’s instructions.
Serum-starved PC-3 cells were treated with different concentrations of constructs in duplicates for 30 min at 37 °C. Cells were washed with 1× PBS twice and further treated according to the manufacturer’s instructions. […] Standard deviation is presented as error bars. The x-axis indicates concentrations of the constructs in terms of DNA for 0xSWL-DNA trimer—3xSWL-DNA trimer and the concentration of the peptide for SWL.
Levels of EphA2 phosphorylation were determined using the DuoSet IC Human Phospho-EphA2 kit (R&D systems, Minneapolis, MN, USA) which is based on a sandwich ELISA. Briefly, 2 × 10^5 PC-3 cells were seeded three days before the assay for the comparison of ligands. For the concentration series used to determine EC50 values, 1 × 10^6 PC-3 cells were seeded into 12-well culture plates one day before the assay. On the day of the experiment, cells were serum-starved for 4 h and treated with either 1xSWL-DNA trimer, 2xSWL-DNA trimer, 3xSWL-DNA trimer, natural ligand ephrin-A1, SWL peptide, DNA trimer only or 1× PBS/10 mM MgCl2 as negative control for 30 min at 37 °C. Cells were lysed using 250 µL/well lysis buffer (according to kit) and assayed as indicated by manufacturer’s instructions. Manifold washing was conducted after every step and the whole procedure was executed at room temperature. In brief, 96-well ELISA plates carrying specific human EphA2 capture antibodies were incubated with cell lysates of afore treated PC-3 cells. This was followed by the addition of anti-phospho-tyrosine-HRP antibodies which ultimately fulfil a colorimetric reaction by conversion of 3,3′,5,5′-Tetramethylbenzidine substrate solution for 25 min (ligands in Figure 4a) or 8 min (ephrin-A1 in Figure A7). This reaction was stopped by adding 2 N H2SO4 and absorbance was measured at 450 nm and at 520 nm (infinite M1000, Tecan, Switzerland); the latter was subtracted as reference value. To normalize values from concentration series, controls (only 1× PBS/10 mM MgCl2) were subtracted, too. Data was analyzed by fitting to the equation: (1) A=Amin+(Amax−Amin)/1+(x/EC50)^−b where A is the observed absorbance, Amin and Amax are minimal and maximal absorbance respectively, and b is the Hill coefficient.

As for `CC(C)C[C@H](NC(=O)[C@H](Cc1c[nH]c2ccccc12)NC(=O)[C@@H](N)CO)C(=O)N[C@@H](C)C(=O)N[C@@H](Cc1ccc(O)cc1)C(=O)N1CCC[C@H]1C(=O)NCC(=O)N[C@@H](C)C(=O)N[C@H](C(=O)N[C@@H](CO)C(=O)N[C@@H](Cc1ccc(O)cc1)C(=O)N[C@@H](CCCNC(=N)N)C(=O)NCC(=O)NCC(=O)N[C@@H](CCCCN=[N+]=[N-])C(=O)O)C(C)C` [SWL, reference compound], under setting [1], the midpoint of the response, the EC50, lay at 154000 ± 115000 nM.

B1: ephrin-A1: natural EphA2 protein ligand, molecular weight approx. 21 kDa (protein)
chain: DRHTVFWNSSNPKFRNEDYTIHVQLNDYVDIICPHYEDHSVADAAMEQYILYLVEHEEYQLCQPQSKDQVRWQCNRPSAKHGPEKLSEKFQRFTPFTLGKEFKEGHSYYYISKPIHQHEDRCLRLKVTVSGKITHSPQAHDNPQEKRLAADDPEVRVLHSIGHS
modifications: Limits are the mature chain without signal peptide and GPI propeptide, by convention; the approx. 21 kDa MW fits a non-Fc soluble form; Possible N-glycan at Asn
Consider B1, for which the “EC50 for EphA2 receptor phosphorylation” value (ephrin-A1 dose-response (Figure A7), PC-3 cells, 30 min at 37 °C, substrate reaction 8 min) was determined as 0.0552 ± 0.0103 µg/mL. This molecule came in with an EC50 (ephrin-A1 dose-response (Figure A7), PC-3 cells, conversion of the µg/mL value) of 2.65 nM and a half-maximal effective concentration (EC50) under setting [1] of 2.7 ± 0.5 nM.
